From patent US20100167314A1

Biological target: human pNBC1 (pancreas-type Na/HCO3 cotransporter 1) (human), Q9Y6R1
Experiment: cell-based or functional assay

Chain of human pNBC1 (pancreas-type Na/HCO3 cotransporter 1) (human), Q9Y6R1 (Q9Y6R1 whole entry): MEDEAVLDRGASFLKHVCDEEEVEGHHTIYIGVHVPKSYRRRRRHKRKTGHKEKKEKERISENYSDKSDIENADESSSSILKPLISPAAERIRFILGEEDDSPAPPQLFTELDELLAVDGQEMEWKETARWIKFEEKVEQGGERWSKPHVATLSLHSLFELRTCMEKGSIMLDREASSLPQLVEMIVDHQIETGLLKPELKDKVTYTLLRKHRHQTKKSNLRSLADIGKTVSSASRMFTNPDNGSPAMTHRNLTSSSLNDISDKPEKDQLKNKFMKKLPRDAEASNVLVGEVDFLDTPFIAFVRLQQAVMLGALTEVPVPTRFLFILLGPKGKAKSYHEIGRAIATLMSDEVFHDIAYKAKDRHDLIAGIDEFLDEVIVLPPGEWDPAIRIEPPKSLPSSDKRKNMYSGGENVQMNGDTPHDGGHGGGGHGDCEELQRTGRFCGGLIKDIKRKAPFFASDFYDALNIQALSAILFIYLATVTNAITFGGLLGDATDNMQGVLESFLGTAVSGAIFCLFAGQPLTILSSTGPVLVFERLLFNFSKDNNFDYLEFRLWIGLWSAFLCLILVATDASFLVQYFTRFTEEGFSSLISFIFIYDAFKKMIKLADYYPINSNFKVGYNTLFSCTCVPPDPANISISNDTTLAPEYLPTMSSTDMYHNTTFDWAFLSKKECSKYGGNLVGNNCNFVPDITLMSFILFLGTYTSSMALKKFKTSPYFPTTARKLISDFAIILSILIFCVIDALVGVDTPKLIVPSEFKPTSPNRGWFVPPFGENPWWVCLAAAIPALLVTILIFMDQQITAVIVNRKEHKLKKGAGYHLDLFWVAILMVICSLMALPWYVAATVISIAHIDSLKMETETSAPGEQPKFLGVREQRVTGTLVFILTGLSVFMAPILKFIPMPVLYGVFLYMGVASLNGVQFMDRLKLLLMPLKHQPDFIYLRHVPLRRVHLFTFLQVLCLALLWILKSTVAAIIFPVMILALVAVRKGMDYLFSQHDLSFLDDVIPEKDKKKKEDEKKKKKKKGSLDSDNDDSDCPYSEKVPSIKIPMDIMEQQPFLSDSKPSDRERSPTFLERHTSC

- current change at a membrane potential of -25 mV when ND96 solution was replaced by ND96+HCO3- solution (voltage clamp, Xenopus oocytes): 6 to 7 times
B1: mouse IRBIT (IP3 receptor-binding protein; IP3R-binding protein released with inositol 1,4,5-trisphosphate), Q80SW1 1-530 (protein)
chain: MSMPDAMPLPGVGEELKQAKEIEDAEKYSFMATVTKAPKKQIQFADDMQEFTKFPTKTGRRSLSRSISQSSTDSYSSAASYTDSSDDEVSPREKQQTNSKGSSNFCVKNIKQAEFGRREIEIAEQDMSALISLRKRAQGEKPLAGAKIVGCTHITAQTAVLIETLCALGAQCRWSACNIYSTQNEVAAALAEAGVAVFAWKGESEDDFWWCIDRCVNMDGWQANMILDDGGDLTHWVYKKYPNVFKKIRGIVEESVTGVHRLYQLSKAGKLCVPAMNVNDSVTKQKFDNLYCCRESILDGLKRTTDVMFGGKQVVVCGYGEVGKGCCAALKALGAIVYITEIDPICALQACMDGFRVVKLNEVIRQVDVVITCTGNKNVVTREHLDRMKNSCIVCNMGHSNTEIDVTSLRTPELTWERVRSQVDHVIWPDGKRVVLLAEGRLLNLSCSTVPTFVLSITATTQALALIELYNAPEGRYKQDVYLLPKKMDEYVASLHLPSFDAHLTELTDDQAKYLGLNKNGPFKPNYYRY
